{"source": "paper PMC5063953", "about": "(Biochemical Pharmacology, 2016)", "key": {"[1]": {"target": "human GLP-1R R6.37^348A (human) (UniProt P43220)", "assay": "radioligand binding"}, "[2]": {"target": "human GLP-1R R5.40^310A (human) (UniProt P43220)", "assay": "radioligand binding"}, "[3]": {"target": "N-terminally double c-myc labelled wildtype human GLP-1R (human) (UniProt P43220)", "assay": "radioligand binding"}, "[4]": {"target": "human GLP-1R Q7.65^410A (human) (UniProt P43220)", "assay": "radioligand binding"}, "[5]": {"target": "human GLP-1R R3.30^227A (human) (UniProt P43220)", "assay": "radioligand binding"}, "[6]": {"target": "human GLP-1R K6.40^351A (human) (UniProt P43220)", "assay": "radioligand binding"}, "[7]": {"target": "human GLP-1R R2.46^176A (human) (UniProt P43220)", "assay": "radioligand binding"}, "[8]": {"target": "human GLP-1R E7.63^408A (human) (UniProt P43220)", "assay": "radioligand binding"}, "[9]": {"target": "human GLP-1R Y3.53^250A (human) (UniProt P43220)", "assay": "radioligand binding"}, "[10]": {"target": "human GLP-1R R5.56^326A (human) (UniProt P43220)", "assay": "radioligand binding"}, "[11]": {"target": "human GLP-1R K6.35^346A (human) (UniProt P43220)", "assay": "radioligand binding"}, "[12]": {"target": "human GLP-1R K4.64^288A (human) (UniProt P43220)", "assay": "radioligand binding"}, "[13]": {"target": "human GLP-1R R6.37^348A (human) (UniProt P43220)"}, "[14]": {"target": "human GLP-1R R5.40^310A (human) (UniProt P43220)"}, "[15]": {"target": "N-terminally double c-myc labelled wildtype human GLP-1R (human) (UniProt P43220)"}, "[16]": {"target": "human GLP-1R Q7.65^410A (human) (UniProt P43220)"}, "[17]": {"target": "human GLP-1R R3.30^227A (human) (UniProt P43220)"}, "[18]": {"target": "human GLP-1R K6.40^351A (human) (UniProt P43220)"}, "[19]": {"target": "human GLP-1R R2.46^176A (human) (UniProt P43220)"}, "[20]": {"target": "human GLP-1R E7.63^408A (human) (UniProt P43220)"}, "[21]": {"target": "human GLP-1R Y3.53^250A (human) (UniProt P43220)"}, "[22]": {"target": "human GLP-1R R5.56^326A (human) (UniProt P43220)"}, "[23]": {"target": "human GLP-1R N2.52^182A (human) (UniProt P43220)"}, "[24]": {"target": "human GLP-1R K6.35^346A (human) (UniProt P43220)"}, "[25]": {"target": "human GLP-1R K4.64^288A (human) (UniProt P43220)"}, "hGIPR": {"test_system": "hGIPR", "conditions": "R5.40A; ref [71]; cited from earlier work"}}, "data": [{"substance": "exendin-4 (from UniProt P26349 48-87) (peptide)", "values": [{"measurement": "pKi", "setting": "[1]", "value": 8.8, "unit": "pKi"}, {"measurement": "pKi", "setting": "[2]", "value": 7.99, "unit": "pKi"}, {"measurement": "pKi", "setting": "[3]", "value": 8.87, "unit": "pKi"}, {"measurement": "pKi", "setting": "[4]", "value": 9.08, "unit": "pKi"}, {"measurement": "pKi", "setting": "[5]", "value": 7.6, "unit": "pKi"}, {"measurement": "pKi", "setting": "[6]", "value": 8.92, "unit": "pKi"}, {"measurement": "pKi", "setting": "[7]", "value": 8.61, "unit": "pKi"}, {"measurement": "pKi", "setting": "[8]", "value": 8.29, "unit": "pKi"}, {"measurement": "pKi", "setting": "[9]", "value": 8.68, "unit": "pKi"}, {"measurement": "pKi", "setting": "[10]", "value": 8.59, "unit": "pKi"}, {"measurement": "pKi", "setting": "[11]", "value": 9.34, "unit": "pKi"}, {"measurement": "pKi", "setting": "[12]", "value": 7.39, "unit": "pKi"}, {"measurement": "−Log KA (functional affinity) from operational model fit of cAMP accumulation curves", "setting": "[13]", "value": "9.37 −Log KA"}, {"measurement": "−Log KA (functional affinity) from operational model fit of iCa2+ mobilisation curves", "setting": "[13]", "value": "7.08 −Log KA"}, {"measurement": "−Log KA (functional affinity) from operational model fit of pERK1/2 curves", "setting": "[13]", "value": "8.35 −Log KA"}, {"measurement": "−Log KA (functional affinity) from operational model fit of cAMP accumulation curves", "setting": "[14]", "value": "7.79 −Log KA"}, {"measurement": "−Log KA (functional affinity) from operational model fit of pERK1/2 curves", "setting": "[14]", "value": "7.53 −Log KA"}, {"measurement": "−Log KA (functional affinity) from operational model fit of cAMP accumulation curves", "setting": "[15]", "value": "9.24 −Log KA"}, {"measurement": "−Log KA (functional affinity) from operational model fit of iCa2+ mobilisation curves", "setting": "[15]", "value": "7.46 −Log KA"}, {"measurement": "−Log KA (functional affinity) from operational model fit of pERK1/2 curves", "setting": "[15]", "value": "8.31 −Log KA"}, {"measurement": "−Log KA (functional affinity) from operational model fit of cAMP accumulation curves", "setting": "[16]", "value": "9.41 −Log KA"}, {"measurement": "−Log KA (functional affinity) from operational model fit of iCa2+ mobilisation curves", "setting": "[16]", "value": "7.1 −Log KA"}, {"measurement": "−Log KA (functional affinity) from operational model fit of pERK1/2 curves", "setting": "[16]", "value": "8.35 −Log KA"}, {"measurement": "−Log KA (functional affinity) from operational model fit of cAMP accumulation curves", "setting": "[17]", "value": "8.13 −Log KA"}, {"measurement": "−Log KA (functional affinity) from operational model fit of iCa2+ mobilisation curves", "setting": "[17]", "value": "6.82 −Log KA"}, {"measurement": "−Log KA (functional affinity) from operational model fit of pERK1/2 curves", "setting": "[17]", "value": "7.31 −Log KA"}, {"measurement": "−Log KA (functional affinity) from operational model fit of cAMP accumulation curves", "setting": "[18]", "value": "9.31 −Log KA"}, {"measurement": "−Log KA (functional affinity) from operational model fit of iCa2+ mobilisation curves", "setting": "[18]", "value": "7.15 −Log KA"}, {"measurement": "−Log KA (functional affinity) from operational model fit of pERK1/2 curves", "setting": "[18]", "value": "8.12 −Log KA"}, {"measurement": "−Log KA (functional affinity) from operational model fit of cAMP accumulation curves", "setting": "[19]", "value": "8.95 −Log KA"}, {"measurement": "−Log KA (functional affinity) from operational model fit of iCa2+ mobilisation curves", "setting": "[19]", "value": "7.39 −Log KA"}, {"measurement": "−Log KA (functional affinity) from operational model fit of pERK1/2 curves", "setting": "[19]", "value": "8.12 −Log KA"}, {"measurement": "−Log KA (functional affinity) from operational model fit of cAMP accumulation curves", "setting": "[20]", "value": "8.89 −Log KA"}, {"measurement": "−Log KA (functional affinity) from operational model fit of iCa2+ mobilisation curves", "setting": "[20]", "value": "7.01 −Log KA"}, {"measurement": "−Log KA (functional affinity) from operational model fit of pERK1/2 curves", "setting": "[20]", "value": "8.35 −Log KA"}, {"measurement": "−Log KA (functional affinity) from operational model fit of cAMP accumulation curves", "setting": "[21]", "value": "9.37 −Log KA"}, {"measurement": "−Log KA (functional affinity) from operational model fit of pERK1/2 curves", "setting": "[21]", "value": "8.11 −Log KA"}, {"measurement": "−Log KA (functional affinity) from operational model fit of cAMP accumulation curves", "setting": "[22]", "value": "9.22 −Log KA"}, {"measurement": "−Log KA (functional affinity) from operational model fit of iCa2+ mobilisation curves", "setting": "[22]", "value": "7.1 −Log KA"}, {"measurement": "−Log KA (functional affinity) from operational model fit of pERK1/2 curves", "setting": "[22]", "value": "8.33 −Log KA"}, {"measurement": "−Log KA (functional affinity) from operational model fit of cAMP accumulation curves", "setting": "[23]", "value": "9.16 −Log KA"}, {"measurement": "−Log KA (functional affinity) from operational model fit of pERK1/2 curves", "setting": "[23]", "value": "8.21 −Log KA"}, {"measurement": "−Log KA (functional affinity) from operational model fit of cAMP accumulation curves", "setting": "[24]", "value": "9.91 −Log KA"}, {"measurement": "−Log KA (functional affinity) from operational model fit of iCa2+ mobilisation curves", "setting": "[24]", "value": "7.78 −Log KA"}, {"measurement": "−Log KA (functional affinity) from operational model fit of pERK1/2 curves", "setting": "[24]", "value": "8.21 −Log KA"}, {"measurement": "−Log KA (functional affinity) from operational model fit of cAMP accumulation curves", "setting": "[25]", "value": "8.16 −Log KA"}, {"measurement": "−Log KA (functional affinity) from operational model fit of pERK1/2 curves", "setting": "[25]", "value": "7.01 −Log KA"}]}, {"substance": "glucose-dependent insulinotropic peptide (YAEGTFISDYSIAMDKIHQQDFVNWLLAQKGKKNDWKHNITQ; Gastric inhibitory polypeptide; UniProt P09681 52-93, looked up) [GIP]", "values": [{"measurement": "Effect compared with WT: cAMP production", "setting": "hGIPR", "value": "Reduced GIP mediated cAMP production."}]}]}
